Where no end group is shown, it is not given here. [ ]: non-standard residue; d: D form. Bip(2'-Et-4'-OMe) = CCc1cc(OC)ccc1-c1ccc(C[C@H](N)C(=O)O)cc1; αMePhe(2,6-F2) = C[C@](N)(Cc1c(F)cccc1F)C(=O)O; αMePhe(2-F) = C[C@](N)(Cc1ccccc1F)C(=O)O; αMeBip(OMe) = alpha-methylated Bip(OMe); hhPhe = N[C@@H](CCCc1ccccc1)C(=O)O; αMeD = C[C@](N)(CC(=O)O)C(=O)O; αMeP = C[C@@]1(C(=O)O)CCCN1; αMeAPPA = not defined here; αMeS = C[C@](N)(CO)C(=O)O; Aib = CC(C)(N)C(=O)O
B1: Seq. ID. No. 17 (peptide)
peptide: VHSQGT[αMePhe(2-F)]TSD[αMeBip(OMe)][hhPhe]
modifications: not fully specified (C-terminus); printed as VHSQGT-(αMe-2FPhe)-TSD-(αMe-Bip(OMe))-(APPA)
B2: Seq. ID. No. 87 (peptide)
peptide: VHSEGTFTSD[Bip(2'-Et-4'-OMe)][αMeAPPA]
modifications: not fully specified (C-terminus); printed as VHSEGTFTSD-Bip(OMe)-(αMe-APPA); reading uncertain
B3: Seq. ID. No. 113 (peptide)
peptide: VH[Aib]EGTFT[αMeS][αMeD][Bip(2'-Et-4'-OMe)][αMeAPPA]
modifications: not fully specified (C-terminus); printed as VH-Aib-EGTFT-(αMe-Ser)-(αMe-Asp)-Bip(OMe)-(αMe-APPA); reading uncertain
B4: Seq. ID. No. 208 (peptide)
peptide: VVH[αMeP]QGTFTSD[αMeBip(OMe)][hhPhe]
modifications: not fully specified (C-terminus); printed as VVH-(αMe-Pro)-QGTFTSD-(αMe-Bip(OMe))-(APPA)
B5: Seq. ID. No. 189 (peptide)
peptide: VHSQGT[αMePhe(2-F)]TS[αMeD][αMeBip(OMe)][αMeAPPA]
modifications: not fully specified (C-terminus); printed as VHSQGT-(αMe-2FPhe)-TS-(αMe-Asp)-(αMe-Bip(OMe))-(αMe-APPA); reading uncertain
B6: Seq. ID. No. 19 (peptide)
peptide: VH[Aib]QGT[αMePhe(2-F)]TSD[αMeBip(OMe)][hhPhe]
modifications: not fully specified (C-terminus); printed as VH-Aib-QGT-(αMe-2FPhe)-TSD-(αMe-Bip(OMe))-(APPA)
B7: Seq. ID. No. 163 (peptide)
peptide: VH[Aib]EGTFT[αMeS]D[αMeBip(OMe)][αMeAPPA]
modifications: not fully specified (C-terminus); printed as VH-Aib-EGTFT-(αMe-Ser)-D-(αMe-Bip(OMe))-(αMe-APPA); reading uncertain
B8: Seq. ID. No. 169 (peptide)
peptide: VHSEGT[αMePhe(2-F)]T[αMeS]D[αMeBip(OMe)][αMeAPPA]
modifications: not fully specified (C-terminus); printed as VHSEGT-(αMe-2FPhe)-T-(αMe-Ser)-D-(αMe-Bip(OMe))-(αMe-APPA); reading uncertain

The binders below were run against human glucagon receptor (human, UniProt P47871 26-477) (assay: cell-based or functional assay).
Sequence of human glucagon receptor (P47871 26-477): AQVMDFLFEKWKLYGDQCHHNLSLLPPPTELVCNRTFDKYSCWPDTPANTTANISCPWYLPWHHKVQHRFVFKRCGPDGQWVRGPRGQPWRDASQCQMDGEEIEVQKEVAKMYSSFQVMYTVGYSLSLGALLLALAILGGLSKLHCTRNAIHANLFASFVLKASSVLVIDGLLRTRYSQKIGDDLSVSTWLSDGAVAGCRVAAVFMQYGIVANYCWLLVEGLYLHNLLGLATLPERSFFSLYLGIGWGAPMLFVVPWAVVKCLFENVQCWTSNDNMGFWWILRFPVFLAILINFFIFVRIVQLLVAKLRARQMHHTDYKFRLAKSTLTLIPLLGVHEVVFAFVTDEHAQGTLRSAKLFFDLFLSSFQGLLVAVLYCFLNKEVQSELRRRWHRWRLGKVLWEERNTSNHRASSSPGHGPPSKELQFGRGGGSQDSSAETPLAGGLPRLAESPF

cAMP production (pmol/ml/µg prt) with saturated glucagon peptide, at 1 nM [pmol/ml/µg prt] | cAMP production (pmol/ml/µg prt) with saturated glucagon peptide, at 10 nM [pmol/ml/µg prt] | cAMP production (pmol/ml/µg prt) with saturated glucagon peptide, at 100 nM [pmol/ml/µg prt] | cAMP production (pmol/ml/µg prt) with saturated glucagon peptide, at 1 µM [pmol/ml/µg prt] | cAMP production (pmol/ml/µg prt) with saturated glucagon peptide, at 10 µM [pmol/ml/µg prt] | Binder
10 | 8 | 6 | 4 | 1 | VH[αMeP]QGT[αMePhe(2,6-F2)]TS[αMeD][αMeBip(OMe)][αMeAPPA] (not fully specified (C-terminus); reading uncertain) [Seq. ID. No. 200]
9 | 6 | 5 | 3 | 0 | VH[Aib]QGT[αMePhe(2-F)]T[αMeS]D[αMeBip(OMe)][αMeAPPA] (not fully specified (C-terminus); reading uncertain) [Seq. ID. No. 167]
5 | 3 | 0 | 0 | 0 | VH[αMeP]QGT[αMePhe(2-F)]T[αMeS]D[αMeBip(OMe)][hhPhe]-NH2 [Seq. ID. No. 44]
6 | 5 | 2 | 0 | 0 | B1
5 | 3 | 1 | 0 | 0 | B2
4 | 2 | 0 | 0 | 0 | B3
0 | 0 | 0 | 0 | 0 | VH[αMeP]EGT[αMePhe(2,6-F2)]TS[αMeD][αMeBip(OMe)][hhPhe] (not fully specified (C-terminus)) [Seq. ID. No. 80]
20 | 18 | 16 | 14 | 12 | VH[Aib]EGTFTS[αMeD][αMeBip(OMe)][hhPhe]-NH2 [Seq. ID. No. 63]
9 | 6 | 5 | 3 | 0 | VH[Aib]EGT[αMePhe(2-F)]T[αMeS]D[αMeBip(OMe)][hhPhe]-NH2 [Seq. ID. No. 47]
4 | 2 | 0 | 0 | 0 | B4
14 | 11 | 7 | 3 | 0 | VH[Aib]QGT[αMePhe(2,6-F2)]TS[αMeD][αMeBip(OMe)][αMeAPPA] (not fully specified (C-terminus); reading uncertain) [Seq. ID. No. 199]
4 | 2 | 0 | 0 | 0 | B5
10 | 8 | 6 | 2 | 0 | VH[Aib]EGT[αMePhe(2-F)]TSD[αMeBip(OMe)][hhPhe]-NH2 [Seq. ID. No. 23]
2 | 0 | 0 | 0 | 0 | VHAEGT[αMePhe(2-F)]TS[αMeD][αMeBip(OMe)][hhPhe]-NH2 [Seq. ID. No. 70]
15 | 12 | 8 | 4 | 2 | B6
5 | 3 | 0 | 0 | 0 | VHAEGT[αMePhe(2,6-F2)]TSD[αMeBip(OMe)][hhPhe]-NH2 [Seq. ID. No. 30]
15 | 12 | 8 | 4 | 2 | B7
9 | 6 | 5 | 3 | 0 | VH[αMeP]EGT[αMePhe(2,6-F2)]TS[αMeD][αMeBip(OMe)][αMeAPPA] (not fully specified (C-terminus); reading uncertain) [Seq. ID. No. 204]
17 | 15 | 12 | 8 | 6 | VH[Aib]EGTFT[αMeS]D[αMeBip(OMe)][hhPhe]-NH2 [Seq. ID. No. 39]
5 | 2 | 0 | 0 | 0 | B8

From patent US20120264685A1 (priority 2009, published 2012)
